The text below walks through data of PMC11062541.

Like-named read-outs stand apart in the source and are kept apart here.

For orientation: Kd means the free concentration of one partner at which half of the binding sites on the other are occupied at equilibrium, for simple one-to-one binding.

Experiment in all cases: EMSA
On the technique in general: In EMSA bound probe runs differently from free probe, usually more slowly.

Data set [1] relates to T1, AbiEi (Streptococcus suis serotype 5 strain HN105), ORF:22a13f51.
T1 sequence: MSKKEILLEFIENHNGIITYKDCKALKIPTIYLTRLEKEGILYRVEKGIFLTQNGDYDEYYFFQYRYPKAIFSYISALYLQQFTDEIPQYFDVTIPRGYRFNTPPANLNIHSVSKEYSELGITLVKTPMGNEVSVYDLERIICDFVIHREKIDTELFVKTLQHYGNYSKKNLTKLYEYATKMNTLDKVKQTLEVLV

Data set [2] deals with T2, SezA (Streptococcus suis serotype 5 strain HN105), ORF:21ec5bb3.
T2 sequence: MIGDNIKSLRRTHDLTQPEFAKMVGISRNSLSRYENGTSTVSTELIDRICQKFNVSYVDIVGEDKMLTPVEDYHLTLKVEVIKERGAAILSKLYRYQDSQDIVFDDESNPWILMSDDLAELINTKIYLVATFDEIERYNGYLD

Data set [3] deals with T3, AbiEiDel-AHTH internal_change (Streptococcus suis serotype 5 strain HN105), ORF:22a13f51.
T3 sequence: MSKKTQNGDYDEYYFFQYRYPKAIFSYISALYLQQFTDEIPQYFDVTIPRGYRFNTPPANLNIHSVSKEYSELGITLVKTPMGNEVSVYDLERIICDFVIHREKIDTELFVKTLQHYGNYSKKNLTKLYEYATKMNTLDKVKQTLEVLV

The test system of data set [4] is SezA (Streptococcus suis serotype 5 strain HN105).
Data set [5] concerns AbiEi (Streptococcus suis serotype 5 strain HN105).

“ACTTACTCCTTCCTTTTACAATATTTGTAGTGCAAAAGCAACATTTTCTTTTACATTAATGTATTGTGATAACAAAATCAAGCCTTCTTTTTTATGATGAGAAAAGAGTGACAGTTTGTTGCTACAGAAAAAAGAAAAGAAGGACTATTTATGACCAAAACATGTAATCATCACTTTCT (double strand) [PAbiE-ΔIR1]”: in data set [1] (IR1 deleted), the binding result was “binds”. Consider “AGAAAGTGATGATTACATGTTTTGGTCATAAATAGTCCTTCTTTTCTTTTTTCTGTAGCAACAAACTGTCACTCTTTTCTCATCATAAAAAAGAAGGCTTGATTTTGTTATCACAATACATTAATGTAAAAGAAAATGTTGCTTTTGCACTACAAATATTGTAAAATTGTAGTATAAAAGCAACATTGGAAGGAGTAAGT (double strand) [AbiE promoter]”, for which the binding result in data set [2] was “no binding”; in data set [3], “no binding”; in data set [1], “binds”.

Take “AGAAAGTGATGATTACATGTTTTGGTCATAAATAGTCCTTCTTTTCTTTTTTCTGTAGCAACAAACTGTCACTCTTTTCTCATCATAAAAAAGAAGGCTTGATTTTGTTATCACAATACATTAATGTAAAAGAAATATTGTAAAAGGAAGGAGTAAGT (double strand) [PAbiE-ΔIR1/2]”: in data set [1] (IR1 and IR2 deleted), the binding result is “no binding”. As to “AGAAAGTGATGATTACATGTTTTGGTCATAAATAGTCCTTCTTTTCTTTTTTCTGTAGCAACAAACTGTCACTCTTTTCTCATCATAAAAAAGAAGGCTTGATTTTGTTATCACAATACATTAATGTAAAAGAAATATTGTAAAATTGTAGTATAAAAGCAACATTGGAAGGAGTAAGT (double strand) [PAbiE-ΔIR2]”, in data set [1] (IR2 deleted), the binding result was “binds”.

For “AGATAAAGACCTCCTCATATTTGCTTTCATTATACCATATATTAGGTTTCTTCGATTGCTTAAACTCCTCTATTCGCTTCTCCAACTGCTCAGTATTCAGTTTATTTTTCGCTTCTTGGATTGACTTATCAAGAATTTGTTCCTCATCGGTTATAATGTCCC (double strand) [PSezAT-ΔIR1/2]”, in data set [2] (IR1 and IR2 deleted), the binding entry is listed as “no binding”. In turn, “AGTACAGGACTGGATTCAATTTTATGCCAAAATTCCTGCCAAACTTCAAATTTATGAACTCAAACCCCTTGATACTGCACATTTAACAGGTTGTGCAATTGTTACTCTTAAATAATAGAGTTTCCAATCAAAATAAAAACCTATCACCTAATGTGGTAGGTTTTTTTTGTTCTATTGTTGCAAACGTTTTCGTTGTGGGGTATAATATAAAAAAT (double strand) [L sequence (attL)]” displayed a dissociation constant Kd in data set [2] of 1960 nM. “AGTACAGGACTGGATTCAATTTTATGCCAAAATTCCTGCCAAACTTCAAATTTATGAACTCAAACCCCTTGATACTGCACATTTAACAGGTTGTGCAATTTAGAGTTTCCAATCAAAATAAAAACCTATCACCTAATGTGGTAGGTTTTTTTTGTTCTATTGTTGCAAACGTTTTCGTTGTGGGGTATAATATAAAAAAT (double strand) [L-ΔattL]”: the binding result in data set [2] (attL deleted) is on record as “no binding”.

With “CCTACTATCCTTTCAACATGATATTTGTCTGACAATGTAAGGCTGCCTCACATTGTCAGTACGCTTCCTAAAGACTTCACTCTCTCCTTGTTCGGTCTTTGCGAGCTCAGATATTGTGTCCACAATATCCCCAGTAGAAAATCAACACTTGATTTTTTTAGGAATGATATTAGGATAATAGAGGTGATTTGGAAAAGGTATCACAAAACAAAAAGTAGGATATTTCTAACCTACTTTTCATTTCCTTATA (double strand) [T sequence (oriT)]”, in data set [3], the binding result was “no binding”. Further, the Kd in data set [1] came out at 153 nM.

Regarding “GGGACATTATAACCGATGAGGAACAAATTCTTGATAAGTCAATCCAAGAAGCGAAAAATAAACTGAATACTGAGCAGTTGGAGAAGCGAATAGAGGAGTTTAAGCAATCGAAGAAACCTAAAAACGGATAATGCACCAAATATGGTGCGTTATCCGTTTTTTATGGTATAATGAAAGCAAATATGAGGAGGTCTTTATCT (double strand) [SezAT promoter]”, the binding result in data set [2] and in data set [1] was “binds” in each case. Turning to L sequence (attL), in data set [4], the dissociation constant Kd was determined as 1960 nM. For the substance T sequence (oriT), the Kd in data set [5] turned out to be 153 nM.

As to “TATAAGGAAATGAAAAGTAGGTTAGAAATATCCTACTTTTTGTTTTGTGATACCTTTTCCAAATCACCTCTATTATCCTAATATCATTCCTAAAAAAATCAAGTGTTGATTTTCTACTGCGAACAAGGAGAGAGTGAAGTCTTTAGGAAGCGTACTGACAATGTGAGGCAGCCTTACATTGTCAGACAAATATCATGTTGAAAGGATAGTAGG (double strand) [T-ΔoriT]”, the binding entry in data set [1] (oriT deleted) was “no binding”.
